Assay: soluble on expression in E. coli; label from the status in PepcDB or PDB records

Q: Which “soluble on expression in E. coli” value does the source give for “MSLALFYGRKITVAGISKRGSETALEISEKLSEKGLAVKCYSRSNLKGCNTYIGSTQNFVLSEVRKSDVLVLVMSLGGAVRIIEKASILKEEGIAVIVVDDYGRYAIPIVNGHSGSANVFARLISELIGSEYIITDAVELNGLMSVEEMSRRLYCTIANPECVLKINTALANGDPVFARNESSKRKHAFEMIKYPWKTYSRSDDAKIIITDRPGEGGEICYLVPDDISVGIGFTGKADPYNIKKRIEEVLLSLGLGYDDVNCVSSLRYNKFLSELIKDNGTEFRTFSADDLKSVDVSLLSHISEEAEEKLGIPGSAEPSALLSLGPGSRIIYPFTKFDHSMTISVASRREGHHHHHH” here?
A: The value was “soluble”.

Q: With “SPVSPAGSHKQQNFGLNNATQPKKSISFFATMKATSVKGYTGANQSRMAVSKTVLIPPELKTVEKPNPNIKTTQVFDINGTDVTPRPLYHPDPLTGTAKPSKLLTSQEGSLGSEFISSYSLYQNTINPSTLGQFTRSVLGSSTVSKSSVSASESIAEDLEEPSYKRERLTSFTDLQVIRAAPEKIVTKEDLEKNIEIILTETETLRFFDLPTVMVSVESEEAEKVTQRNKNYEVLCRNRLGNDLYVERMMQTFNGAPKNKDVQCDKIIMEDKGIMSTAWDLYDSYNAMELVSLSVKQSVVESSSKANVLPKDQDQRLPGSTTEKNSETSSLMDIENVILAKIHEDEEDHSDAILKSDKFHQDLFFMERVLMENIFQPKLAAYRQLPVLKEPEPEEPEDVLESAKHEEVEEESKKEEEEEIHAEESTIPANLERLWSFSCDLTKGLNVSSLAWNKTNPDLLAVGYGHFGFKEQKRGLACCWSIKNPMVTQTRIRSIFIWLLTKFS” as the sequence, how does the “soluble on expression in E. coli” value read?
A: Its value is “soluble”.

Q: For “MKALNLKTPGREDDDVDEVLDENTVQDVNENIMLKGLGGKENLQTIDHCATRLRLTVKDTALVDEALLKKAGAKGVVKSGGQSVQVIIGPNVEFAAEELRAAVK”, which “soluble on expression in E. coli” value is on record?
A: The value was “not soluble”.

Q: For “QQEYMKVGKFSPESNRSRWLVTRGATMTTKDTTRNMTMNTNLGGYQVLEIFRKLETPEAVTAFEGLSIPEPGLEPRFCVREGEQEVPVTTRYTDEAFWQVFDFSFVAGKHYTEADARSNIAVAVITDRLARRFFGSSSEAVGRQALINGRKYTVCGVVRHVTPFCDFAYGDVWMPVFRLYEERVKNNLFSRFNVICLAKSPKDFDAIKEEVGALTAKCNSVQEKFNISFPGQPADQFTTMHRKFHRDDTEPLEYRRR”, which “soluble on expression in E. coli” value is on record?
A: The value was “not soluble”.

Q: For “IGYWHYDADTDTATWSKGLFKILGLPPSNVALNYSSFLDLVHPNDKAGLKNVVEKALKEKEDYDYELRVRNGDNDYKWYRTIARANPHK”, which “soluble on expression in E. coli” value is on record?
A: Its value is “not soluble”.

Q: Which “soluble on expression in E. coli” value does the source give for “MHKVVIVGRPNVGKSSLFNRLLKKRSAVVADVPGVTRDLKEGVVETDRGRFLLVDTGGLWSGDKWEKKIQEKVDRALEDAEVVLFAVDGRAELTQADYEVAEYLRRKGKPVILVATKVDDPKHELYLGPLYGLGFGDPIPTSSEHARGLEELLEAIWERLPVRQIETEPEVAGIRLAIVGRPNAGKSSLLNAILGEERVIVSEEPGTTRDAIDVEFFFGGQRFVLVDTAGIRKRPENLVEELAIRRSLRAMDEADVVLLVVDPFQVGDRELKLANEALDRGKPVLLVITKWDLVDKEDAPKMRRLLREKLAHLDHLPRVFTSALTRQNLDRIFREAVRLHELNQTRVPTAELNRWVAVWTSRVQMPNFKGKPLKILYATQPEVAPPTFVFFVNHPEFVTRAFENYLKNRIGEDLGLREVPFRLVFRGRREE” here?
A: The value was “soluble”.

Q: For “MPYRRRQSTAPKSGAPKSVRSAAAGQSLDIDGIHLHLTRKPIKNLYLRIKPPSGRVEISAPMRMSESRIADFVKERHSWILAQQQRMAEAQRRSIMALNEGAGFENGGRGVAGASGHDGGVAGRPKTGDISRPGIGDAGPGQAGTNVQPYFDRSQIWTDERKRQAAAAINAALPQLLAKWGPVVGRQPTHITLRVMTSRWGSCTPRTGRIRLNLQLGLMEPQFLEYVLVHEMTHLWESGHGAGFQRRMTAYLPGWKTLRRDLNRRVVLLEHHHHHH”, which “soluble on expression in E. coli” value is on record?
A: The value was “soluble”.

Q: For “MIIIGIDEAGRGPVLGPMVVCAFAIEKEREEELKKLGVKDSKELTKNKRAYLKKLLENLGYVEKRILEAEEINQLMNSINLNDIEINAFSKVAKNLIEKLNIRDDEIEIYIDACSTNTKKFEDSFKDKIEDIIKERNLNIKIIAEHKADAKYPVVSAASIIAKAERDEIIDYYKKIYGDIGSGYPSDPKTIKFLEDYFKKHKKLPDIARTHWKTCKRILDKSKQTKLIIE”, which “soluble on expression in E. coli” value is on record?
A: The value was “soluble”.

Q: With “GSHMNLKEQLCFSLYNAQRQVNRYYSNKVFKKYNLTYPQFLVLTILWDESPVNVKKVVTELALDTGTVSPLLKRMEQVDLIKRERSEVDQREVFIHLTDKSETIRPELSNASDKVASASSLSQDEVKELNRLLGKVIHAFDE” as the sequence, how does the “soluble on expression in E. coli” value read?
A: The value was “soluble”.

Q: For “MSGATPVFTEINQIQGTGDKSPLISSGFISDDEYFVQGVVTARGESLLKGFYLQGLNDDFDPNSSEGIFVSTGSAPSLEIQPGALVCVKAKVQEYYGQTQLKPDTNNFLVQGHQAPVSVTELTINENETLAQALERHEGMQVKLTSHSDLRITRNFSFDYASKRNNMVLSHGEPLFKPTQLFAAESPEAIQLAEENAKRQITIESDNKAPNGEVPYFPDFATDSNQDGSADSYLRLGARIEGLEGVIAYSYGQYRLVTTNTISQENIITQAFDEDGLEHHHHHH”, which “soluble on expression in E. coli” value is on record?
A: The value was “soluble”.

Q: Which “soluble on expression in E. coli” value does the source give for “HWVTPDGQPGPSGEGGFTAESGRYHLFVSLACPWAHRTLIFRHLKDLQAHIGITIVDPRMLEHGWAFSEISRDNPVQDIRYLHQLYTRAKPDYTGRVTVPVLWDKQRDTIVSNESADIIRMFNSAFDSLTGNDLDFYPEALRNEIGTINEVVYRDFNN” here?
A: Its value is “not soluble”.

Q: For “MGSDKIHHHHHHMFGFRLSGGKGILQRSQVALVVMESTGGLEIPAAKAIRRAGIAVIIANPRQTHQFAQLQPLTKTDAKDAKMPAFFAQMTAQKEDSQTMPYQPPTEAEEVLEALVNRRNQSADMRTAEKNRLHQVHETQVGSVKQLIAHFDRLIDELDKQIDDHTHTHFDGKAQVAEQIKGIGSITTATLMAMLPELGRLSHKRIASLAGIAPHPRESEETKFKSRCFGGRSAVRKALYMATVAATRFEPLIRDFYQRLLSKGKPYKVAVTACMRKLLTISNTRMRDYFAENDTAENGIRTA”, which “soluble on expression in E. coli” value is on record?
A: Its value is “not soluble”.

Q: Which “soluble on expression in E. coli” value does the source give for “MAHHHHHHMAAVFSTDASPSADVAVTAQFRVARGEYPTLAVLKQVPLLDDEALRLAMEKLAARRAGHTAGGGADGEPEGVDYTRYTTVDGEGTQACPCKDTGVWPAWVFSPGIQLMARRLRVRELSLEFLSLIDSMMAVNPADRPTAEAVLLDSPVFGMRMPWWEKVVEKAVRRVVEGKENVLLDVCVGDSDEEEEEDEEEAALVRRTMMPLVLPAENHGYVPHNVIHWWNVDLTRGEPDHTKWLSPTSLLASLLTTVRDLTGLEAARDAQDPVLREVPLYTATSLQFVERVCVPVRGTDVSARKIEDGPLFRELEAGGHSTGFFIHVQIRIRAIARAGQVLMANGWAEEEDVADQEEMARRAMEELVATTEKWLLSREATTGVAALHVLPWVSWHLNEEEAGTDGSTQHCFIVEYAAAGPGDGQPQPCANESSVTGEVSSVFRDWRANLTDGLQRLCCDDATAPDETTHDGASNAPRGGLRLEEKLEAMLDALEAVESELMERQKRNEAHQGLLQDHVVHWLSVRAAPSVERCMETLQGVCGGGDVSSQQIHEWILTTVFTSEGAMALMPVLRI” here?
A: Its value is “not soluble”.

Q: With “MNKFSLFFALTATLMTITESAVPTASISAHVLDISGGSPAGGVQILAYIQQNDDWTKIGSEFTQDNGRVDWVSPDFTLIPGTYRLVYITEPYYKAKNVESFYPYVEVVFNIRDATQHYHVPLTLSPWGYSTYRGS” as the sequence, how does the “soluble on expression in E. coli” value read?
A: The value was “not soluble”.

Q: For “MAHHHHHHMSRNVAAEEEWEDVDAPNEEDEEEEDTTINNSDVMMRYKKAALWCNETLQLLLDATKPGAKVHELCKLGDETVAKKLKTMFKGTEKGLAFPTCISVNSCVAHNSPSADDEVASQEIQLGDVVHIDLGIHVDGYCAQVAHTVQVTENNELAADDDASKVISATYGILNTAMRKMRPGVSVYEVTEVIEKAAAHYGVTPVDGVLSHMLKRYIVDSFRCVPQRKVAEHLVHDYTLEAGQVWTLDIVMSSGKGKLKERDVRPTVYKVALDSNYTMKMESARELQREIEAKYQTFPFALRNLETKRARLGLSEMLKHGAVVPYPVLYERDGEVVGHFKITLLITAKKIEPVTGLKPQKAPTLPAYTDELLLEASKLPLTLEKKRKN”, which “soluble on expression in E. coli” value is on record?
A: Its value is “not soluble”.

Q: Which “soluble on expression in E. coli” value does the source give for “SNAMADGIYGSFENLKKHAGTMTLEAYMRFSAKLSEAKDEMGTKEYEVFTKELKKLTNAKLAYGDANGNIDYDALSPEKREEMKTVSMGLQPYFDKLNGHKSSKEVLTQEEFDRYMEALMTHEIVRVKTKSTGAIKVEEVPEAYKERFMKAEQFMEYVDEKVR” here?
A: The value was “soluble”.

Q: Which “soluble on expression in E. coli” value does the source give for “MQTGNGEYHMGNTMTKAIYEKFKSATPYGNTVATGAIPTETVDIAVNVGGFKVGDQNYPINPKVTFTNNTGQDIPGGTEFQFDIPVSAPDNAKDQSGGGLQVIASGHTRPNNIGGLDGTMHRVAFTLPAWKALPAGGVYELDMVYYLPISGPANYTVNINNVDYAFKFEQPDLPLADLSSLEHHHHHH” here?
A: The value was “soluble”.

Q: With “TSRNYLLLTPGPLTTSRTVKEAMLFDSCTWDDDYNIGVVEQIRQQLTALATASEGYTSVLLQGSGSYAVEAVLGSALGPQDKVLIVSNGAYGARMVEMAGLMGIAHHAYDCGEVARPDVQAIDAILNADPTISHIAMVHSETTTGMLNPIDEVGALAHRYGKTYIVDAMSSFGGIPMDIAALHIDYLISSANKCIQGVPGFAFVIAREQKLAACKGHSRSLSLDLYAQWRCMEDNHGKWRFTSPTHTVLAFAQALKELAKEGGVAARHQRYQQNQRSLVAGMRALGFNTLLDDELHSPIITAFYSPEDPQYRFSEFYRRLKEQGFVIYPGKVSQSDCFRIGNIGEVYAADITALLTAIRTAMYWTK” as the sequence, how does the “soluble on expression in E. coli” value read?
A: The value was “soluble”.

Q: Which “soluble on expression in E. coli” value does the source give for “GPGSMPPSTAAPYALRTDKLKPLEGYVAGCSVSPAEVASQVASSLQPVVLAICGSFNPIHNAHLKLYDAAKRSVDGADGRVVLGGFLSPVGDAYGKPGLRSAADRVHIMRKALCHHPDLNVDTWECQQPVYMRTFFVLQALEEHINAWYAESEPAAVEWLASHDRRVRVAFVCGADLFSSFWIPGCWQLRLLRQLLDSFHLVVVHRDGGRGCVRGADDFAHVCQTAPLLSETAEGGEKIEIDMSQYTFTFATFSAPDDTSSTAVRAAAMELARTPQGDAVTRAALQSRLRAMLPEAAVQSVVELYGKVLTS” here?
A: Its value is “not soluble”.

Q: With “DRHVDTHSEVLIFEVIPADDFLQQQLQITVQDRVWHVKRVRYRKQKPMALEETWMPLALFPDLTWQVMENSKYHFIEEVKKMVIDRSEQEIIPLMPTEEMSRLLNISQTKPILEKVSRGYLVDGRVFEYSRNAFNTDDYK” as the sequence, how does the “soluble on expression in E. coli” value read?
A: Its value is “not soluble”.

Q: Which “soluble on expression in E. coli” value does the source give for “AKQAAQSTFNSFHEWAKQAEAMRNPSRMDIYKIYKQDAPHSHPMSDEQQEEFLHTLKALNGKNGIEVRTQDHDSVRNKKDRNLDKYIAESPDAKRFFYRIIPKHERREDKNQGRLTIGVQPQYATQLTRAMATLIGKESAITHGKVIGPACHGQMTDSAVLYINGDVAKAEKLGEKLKQMSGIPLDAFVEHTPLSMQSLSKGLSYAESILGDTRGHGMSRAEVISDALRMDGMPFLARLKLSLSANGYDPDNPALRNTK” here?
A: The value was “soluble”.

Q: For “MGSDKIHHHHHHAKSVATTEHLKRYTEAISHDSCQGRKPFSEGADRAVNYIAHQMKEVGLKPINGDSYFQQVNIISSRTRCPDPMVLKTPKGKIPLDWLEGYTAFSARIEPEIDIDNAELVFAGYGIVAPEYGKNDFEGIENPQDKVAVVIVNDPGLGSDNTDYFNGDIMTYYGRWMYKFEEGARQGLKGVLIIHEDRGAGYPWSVVRASAQSKMYVDSDSDAYHCPLNGWIQFNAAKQLLADNGYDIDQLIEQSKSPDFKPISLKSTVTVSMRNTFDRQQSPNVIGYIPGSGNTDESVIYLGHWDHLGYGAPINGDSIINGATDNAVAIAWMLEMARCFNVLKEKPRRNIVFLSPTCEETGFLGTKYYVEHPLFPIDKIAAVINLDVFPLWGENNDVTITGYGNSELDDTLAELAKKYNRYIMPDPDAYNGMFYRSDHFPFVQKGIPAMFAKGWNDNRKQGKEWAKEHIAHYWAETYHKPTDQTHPDTDDYSGLLQEVQLFFDLGYKLAQDTGYPKWKPKSEFANVLKR”, which “soluble on expression in E. coli” value is on record?
A: Its value is “not soluble”.

From the DeepSol protein solubility set
